# Test results from paper PMC11199634.
# Columns and labels:
# LgBiT-PP1α = LgBiT-PP1α (UniProt P62136); assay: lysate-based split-luciferase complementation; conditions: mixed HEK293T lysates; signals normalized for the same expression level; n = 3; parent: est. 100; read off a plot
# [1] = molecular target: SDS22-KR7A (purified) (human) (UniProt Q15435); assay: ITC; 5 μM SDS22 in the cell titrated with 50 μM His-I3 (20 injections), 22 °C, MicroCal iTC200; binding curves not saturated
# EGFP-I3-DE4A (human) = EGFP-I3-DE4A (human) (UniProt O60927); assay: co-IP; EGFP-trap (anti-EGFP nanobodies on agarose, 2 h, 4 °C) of transiently expressed EGFP fusions from HEK293T lysates (20 mM Tris pH 7.9, 0.3 M NaCl, 0.5% Triton X-100); endogenous partners by immunoblot
# Chain of EGFP-I3-DE4A (human) (O60927 whole entry, the tested form may be a part): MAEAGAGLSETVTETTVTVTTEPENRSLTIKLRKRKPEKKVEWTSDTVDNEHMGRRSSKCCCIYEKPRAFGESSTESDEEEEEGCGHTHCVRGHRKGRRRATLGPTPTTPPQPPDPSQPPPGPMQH
# Chain of LgBiT-PP1α (P62136 whole entry): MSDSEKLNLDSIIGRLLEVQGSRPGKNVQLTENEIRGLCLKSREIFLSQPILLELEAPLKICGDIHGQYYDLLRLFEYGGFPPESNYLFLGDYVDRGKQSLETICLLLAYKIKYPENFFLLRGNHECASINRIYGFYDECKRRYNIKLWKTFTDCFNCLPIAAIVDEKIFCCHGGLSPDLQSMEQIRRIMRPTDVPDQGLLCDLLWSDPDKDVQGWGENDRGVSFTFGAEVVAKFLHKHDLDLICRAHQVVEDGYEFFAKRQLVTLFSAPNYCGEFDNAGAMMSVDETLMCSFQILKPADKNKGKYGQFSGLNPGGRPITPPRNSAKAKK
# Chain of PP1 (endogenous, HEK293T) (P62136 whole entry): as above
# Chain of RM-SmBiT (Q69YH5 whole entry, change not shown): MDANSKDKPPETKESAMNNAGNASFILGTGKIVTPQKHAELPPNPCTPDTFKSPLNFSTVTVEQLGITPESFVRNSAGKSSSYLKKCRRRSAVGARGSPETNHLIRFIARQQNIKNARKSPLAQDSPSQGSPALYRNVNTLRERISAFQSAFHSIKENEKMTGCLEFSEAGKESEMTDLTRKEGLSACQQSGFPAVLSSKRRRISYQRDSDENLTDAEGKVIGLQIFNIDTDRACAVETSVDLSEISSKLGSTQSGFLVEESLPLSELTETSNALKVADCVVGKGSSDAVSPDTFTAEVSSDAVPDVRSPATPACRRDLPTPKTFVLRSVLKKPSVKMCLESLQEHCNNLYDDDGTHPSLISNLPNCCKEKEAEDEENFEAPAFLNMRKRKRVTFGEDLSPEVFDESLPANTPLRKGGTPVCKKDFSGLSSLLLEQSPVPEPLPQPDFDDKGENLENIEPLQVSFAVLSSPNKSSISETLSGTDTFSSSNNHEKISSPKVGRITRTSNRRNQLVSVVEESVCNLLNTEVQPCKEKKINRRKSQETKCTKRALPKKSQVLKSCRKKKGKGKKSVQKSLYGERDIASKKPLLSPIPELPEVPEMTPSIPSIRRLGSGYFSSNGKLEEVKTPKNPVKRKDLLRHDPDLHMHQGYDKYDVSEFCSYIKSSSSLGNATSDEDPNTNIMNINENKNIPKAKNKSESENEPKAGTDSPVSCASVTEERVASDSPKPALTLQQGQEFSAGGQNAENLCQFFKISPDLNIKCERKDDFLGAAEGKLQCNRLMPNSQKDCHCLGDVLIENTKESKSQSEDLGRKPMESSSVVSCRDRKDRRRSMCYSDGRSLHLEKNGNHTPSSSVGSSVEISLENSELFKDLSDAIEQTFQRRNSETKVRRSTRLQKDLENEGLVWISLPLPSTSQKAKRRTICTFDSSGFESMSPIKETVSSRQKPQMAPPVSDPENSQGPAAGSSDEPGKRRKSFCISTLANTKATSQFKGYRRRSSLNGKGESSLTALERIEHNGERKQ
# Chain of I2-SmBiT (P41236 whole entry, change not shown): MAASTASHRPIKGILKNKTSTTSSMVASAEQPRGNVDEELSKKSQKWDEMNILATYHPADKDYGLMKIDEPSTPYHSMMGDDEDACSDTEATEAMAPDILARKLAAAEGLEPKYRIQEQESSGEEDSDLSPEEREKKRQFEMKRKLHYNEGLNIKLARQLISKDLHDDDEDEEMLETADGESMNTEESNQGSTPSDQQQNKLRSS
# Chain of SDS22-KR7A (purified) (human) (Q15435 whole entry, the tested form may be a part): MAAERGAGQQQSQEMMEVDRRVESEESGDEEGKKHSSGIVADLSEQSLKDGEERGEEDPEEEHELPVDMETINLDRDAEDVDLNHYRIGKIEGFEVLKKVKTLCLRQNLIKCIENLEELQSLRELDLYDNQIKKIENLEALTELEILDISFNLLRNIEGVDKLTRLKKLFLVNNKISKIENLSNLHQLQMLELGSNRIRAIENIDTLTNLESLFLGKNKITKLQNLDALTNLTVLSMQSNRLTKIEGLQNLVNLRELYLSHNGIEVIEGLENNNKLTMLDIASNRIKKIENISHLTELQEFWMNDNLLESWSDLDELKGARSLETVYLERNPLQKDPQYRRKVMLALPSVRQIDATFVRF
# Chain of I3^WT-SmBiT (O60927 whole entry, change not shown): as the sequence (O60927 whole entry, the tested form may be a part) above
# Chain of His-I3 (O60927 whole entry): as the sequence (O60927 whole entry, the tested form may be a part) above
percent of parent (% of RIPPOs^WT-SmBiT) (LgBiT-PP1α),Substance,further results
32,I2-SmBiT (from UniProt P41236) RATA,–
6,I3^WT-SmBiT (from UniProt O60927) RATA,–
–,His-I3 (from UniProt O60927 1-126) (natural protein),Kd [1]: 128 µM
10,RM-SmBiT (from UniProt Q69YH5) RATA,–
–,"PP1 (endogenous, HEK293T) (from UniProt P62136 1-330) (enzyme)",percent decrease of binding against EGFP-I3-WT (EGFP-I3-DE4A (human)): 35%
